These results are taken from patent publication US11161908 (CITY OF HOPE, dated 2021).

To fix the notation:
B1: chimeric anti-human BAFF-R antibody C55 (Clone 55 variable regions, human IgG1 constant regions) (antibody, V domains shown)
VH: QVTLKESGPGILKPSQTLSLTCSFSGFSLSTSGMGVGWIRQPSGKGLEWLAHIWWDDDKYYNSSLKSHLTISKDTSRNQVFLKITSVDTADTATYYCARSFGYGLDYWGQGTTLTVSS
VL: DIQMTQTTSSLSASLGDRVTISCSASQDISNYLNWYQQKPDGTVKLLIYYTSSLHSGVPSRFSGSGSGTDYSLTISSLEPEDIATYYCHQFSELPWTFGGGTKLEIK
modifications: Conjugated to Alexa Fluor 488 in FIG. 1D (sites not given)
notes: also called chimeric C55; Chi55
B2: chimeric anti-human BAFF-R antibody C90 (Clone 90 variable regions, human IgG1 constant regions) (antibody, V domains shown)
VH: EVQLQESGPSLVKPSQTLSLTCSVTGDSITSGYWNWIRKFPGNKLEYMGYISYSGSTYYNPSLKSRISITRDTSKNQYYLQLNSVTPEDTATYYCASPNYPFYAMDYWGQGTSVTVSS
VL: not shown
notes: also called chimeric C90; Chi90
B3: humanized C90 variant HC1 + LC3 (antibody, V domains shown)
VH: QVQLQESGPGLVKPSQTLSLTCTVSGDSITSGYWNWIRQHPGKGLEYIGYISYSGSTYYNPSLKSRVTISRDTSKNQFSLKLSSVTAADTAVYYCASPNYPFYAMDYWGQGTLVTVSS
VL: DIVMTQSPSSLSASVGDRVTITCRASESVDNYGISFMNWFQQKPGKAPKLLIYAASNLGSGVPSRFSGSGSGTDFTLTISSLQPEDFATYYCQQSKEVPWTFGQGTKVEIKR
notes: also called Humanized HC1 + LC3; Hu90 HC-1 with Hu90 LC-3
B4: humanized C90 variant HC2 + LC1 (antibody, V domains shown)
VH: EVQLQESGPGLVKPSQTLSLTCTVSGDSITSGYWNWIRQHPGKGLEYIGYISYSGSTYYNPSLKSRVTISRDTSKNQYSLKLSSVTAADTAVYYCASPNYPFYAMDYWGQGTLVTVSS
VL: EIVLTQSPATLSLSPGERATLSCRASESVDNYGISFLNWFQQKPGQAPRLLIYAASNRATGIPARFSGSGSGTDFTLTISSLEPEDFAVYYCQQSKEVPWTFGGGTKVEIKR
notes: also called Humanized HC2 + LC1; Hu90 HC-2 with Hu90 LC-1
B5: humanized C90 variant HC3 + LC2 (antibody, V domains shown)
VH: EVQLQESGPGLVKPSETLSLTCSVSGDSITSGYWNWIRQPPGKGLEYIGYISYSGSTYYNPSLKSRVTISRDTSKNQYSLRLSSVTAADTALYYCASPNYPFYAMDYWGQGTRVTVSS
VL: DIVLTQSPATLSLSPGERATLSCRASESVDNYGISFMNWFQQKPGQAPRLLIYAASNRATGIPARFSGSGSGTDFTLTISSLEPEDFAVYYCQQSKEVPWTFGGGTKVEIKR
notes: also called Humanized HC3 + LC2; Hu90 HC-3 with Hu90 LC-2
B6: humanized C90 variant HC1 + LC1 (antibody, V domains shown)
VH: QVQLQESGPGLVKPSQTLSLTCTVSGDSITSGYWNWIRQHPGKGLEYIGYISYSGSTYYNPSLKSRVTISRDTSKNQFSLKLSSVTAADTAVYYCASPNYPFYAMDYWGQGTLVTVSS
VL: EIVLTQSPATLSLSPGERATLSCRASESVDNYGISFLNWFQQKPGQAPRLLIYAASNRATGIPARFSGSGSGTDFTLTISSLEPEDFAVYYCQQSKEVPWTFGGGTKVEIKR
notes: also called Humanized HC1 + LC1; Hu90 HC-1 with Hu90 LC-1
B7: humanized C90 variant HC2 + LC2 (antibody, V domains shown)
VH: EVQLQESGPGLVKPSQTLSLTCTVSGDSITSGYWNWIRQHPGKGLEYIGYISYSGSTYYNPSLKSRVTISRDTSKNQYSLKLSSVTAADTAVYYCASPNYPFYAMDYWGQGTLVTVSS
VL: DIVLTQSPATLSLSPGERATLSCRASESVDNYGISFMNWFQQKPGQAPRLLIYAASNRATGIPARFSGSGSGTDFTLTISSLEPEDFAVYYCQQSKEVPWTFGGGTKVEIKR
notes: also called Hu90 HC-2 with Hu90 LC-2
B8: humanized C90 variant HC3 + LC3 (antibody, V domains shown)
VH: EVQLQESGPGLVKPSETLSLTCSVSGDSITSGYWNWIRQPPGKGLEYIGYISYSGSTYYNPSLKSRVTISRDTSKNQYSLRLSSVTAADTALYYCASPNYPFYAMDYWGQGTRVTVSS
VL: DIVMTQSPSSLSASVGDRVTITCRASESVDNYGISFMNWFQQKPGKAPKLLIYAASNLGSGVPSRFSGSGSGTDFTLTISSLQPEDFATYYCQQSKEVPWTFGQGTKVEIKR
notes: also called Humanized HC3 + LC3; Hu90 HC-3 with Hu90 LC-3
B9: humanized C90 variant HC1 + LC2 (antibody, V domains shown)
VH: QVQLQESGPGLVKPSQTLSLTCTVSGDSITSGYWNWIRQHPGKGLEYIGYISYSGSTYYNPSLKSRVTISRDTSKNQFSLKLSSVTAADTAVYYCASPNYPFYAMDYWGQGTLVTVSS
VL: DIVLTQSPATLSLSPGERATLSCRASESVDNYGISFMNWFQQKPGQAPRLLIYAASNRATGIPARFSGSGSGTDFTLTISSLEPEDFAVYYCQQSKEVPWTFGGGTKVEIKR
notes: also called Humanized HC1 + LC2; Hu90 HC-1 with Hu90 LC-2
B10: humanized C90 variant HC3 + LC1 (antibody, V domains shown)
VH: EVQLQESGPGLVKPSETLSLTCSVSGDSITSGYWNWIRQPPGKGLEYIGYISYSGSTYYNPSLKSRVTISRDTSKNQYSLRLSSVTAADTALYYCASPNYPFYAMDYWGQGTRVTVSS
VL: EIVLTQSPATLSLSPGERATLSCRASESVDNYGISFLNWFQQKPGQAPRLLIYAASNRATGIPARFSGSGSGTDFTLTISSLEPEDFAVYYCQQSKEVPWTFGGGTKVEIKR
notes: also called Humanized HC3 + LC1; Hu90 HC-3 with Hu90 LC-1
B11: mouse monoclonal antibody from hybridoma Clone 55 (antibody, V domains shown)
VH: QVTLKESGPGILKPSQTLSLTCSFSGFSLSTSGMGVGWIRQPSGKGLEWLAHIWWDDDKYYNSSLKSHLTISKDTSRNQVFLKITSVDTADTATYYCARSFGYGLDYWGQGTTLTVSS
VL: DIQMTQTTSSLSASLGDRVTISCSASQDISNYLNWYQQKPDGTVKLLIYYTSSLHSGVPSRFSGSGSGTDYSLTISSLEPEDIATYYCHQFSELPWTFGGGTKLEIK
notes: also called mouse mAb C55

One assay concerns the target T1, human BAFF-R, endogenous, on human B-cell lines, primary lymphoma cells and normal B cells (human, UniProt Q96RJ3 1-184).
T1 construct: whole, on cells; also called BAFF-R-positive human MCL lines (Mino, JeKo-1, REC-1, JVM-13, Z-138); NHL lines JeKo-1, SU-DHL-6, Raji, RL
Kind of assay: flow cytometry, Alexa Fluor 488-conjugated chimeric antibody on primary NHL patient samples. On the technique in general: In flow cytometry, cells or beads pass a laser one at a time.
Regarding B1, the binding result is “binds”.

In a further assay the target is T2, commercial, recombinant extracellular domain of human BAFF-R (human, UniProt Q96RJ3 1-78).
T2 construct: extracellular domain
Kind of assay: Biacore analysis; antibody as loading sample, recombinant human BAFF-R ECD as sample. The procedure:
The chimeric anti-BAFF-R antibody C90 was humanized with several variants. The humanization process took into consideration and analysis of the variable region and specifically the CDRs of the chimeric antibody. From there, three variants for each heavy and light chain was developed with varying degrees of human-likeness ranging from 1 the most human to 3 the most conservative to the chimeric. The variants were combined to produce 9 variants. Biacore analysis was performed on each variant as well as the chimeric parental C90 to determine their equilibrium dissociation constant K_D. The antigen was commercial, recombinant extracellular domain of human BAFF-R.
Background: Surface plasmon resonance follows binding to a sensor surface in real time, without labels.
What is called koff is a measure of how fast the partners let go of each other. The kon is the rate constant with which the complex forms. On to B2, for which the koff is 0.002 s⁻¹ and the kon amounted to 990000 M⁻¹ s⁻¹.

Usually Kd stands for the concentration at which binding is half-saturated. With B3, the Kd stood at 5 nM, the koff turned out to be 0.0021 s⁻¹ and the kon was determined as 410000 M⁻¹ s⁻¹.

On to B4, for which the equilibrium dissociation constant (Kd) turned out to be 2.6 nM, the dissociation rate constant (koff) was found to be 0.002 s⁻¹ and the on-rate constant (kon) was found to be 770000 M⁻¹ s⁻¹.

Consider B5, for which the dissociation constant Kd came to 3.1 nM, the koff amounted to 0.0037 s⁻¹ and the kon stood at 1.2e+06 M⁻¹ s⁻¹.

As for B6, the Kd was 4 nM, the koff worked out at 0.0024 s⁻¹ and the association rate constant (kon) came out at 610000 M⁻¹ s⁻¹.

B7: the Kd was determined as 3.6 nM, the koff came out at 0.0022 s⁻¹ and the on-rate constant (kon) was found to be 610000 M⁻¹ s⁻¹.

As to B8, the dissociation constant Kd was found to be 3.4 nM, the koff is 0.0023 s⁻¹ and the association rate constant (kon) came to 680000 M⁻¹ s⁻¹.

For the molecule B9, the Kd is 3.7 nM, the off-rate constant (koff) stood at 0.0023 s⁻¹ and the kon was determined as 620000 M⁻¹ s⁻¹.

As for B10, the Kd was found to be 3.8 nM, the off-rate constant (koff) turned out to be 0.0031 s⁻¹ and the association rate constant (kon) stood at 820000 M⁻¹ s⁻¹.

The next assay deals with T1, human BAFF-R, endogenous, on human …. Kind of assay: flow cytometry, hybridoma supernatant at 1/10, 1/50 and 1/200 with anti-mouse IgG-APC on Mino; 293T as negative control. From the text: Figure 8: FIG. 8 are flow cytometry results showing verification that selected hybridoma clones bind MCL cells. Binding of hybridoma Clone 53, 55, 67, and 90 supernatants (1/10, 1/50, and 1/200 dilutions) to Mino (mantle cell lymphoma) and 293T (negative control) cell lines assessed by flow cytometry performed with anti-mouse IgG-APC.
For the molecule B11, the binding result was “binds”.
